Measured values from publication PMC2879411.

Key:
[1] = biological target: filamentous actin (F-actin), rabbit skeletal muscle (rabbit) (UniProt P68135)
[2] = biological target: filamentous actin (F-actin), rabbit skeletal muscle (UniProt P68135); test: inhibition of barbed end elongation from spectrin-actin seeds (pyrenyl-actin), fitted binding curve with 1:1 stoichiometry; settings: 2 µM G-actin (10% pyrenyl-labeled)
[3] = biological target: filamentous actin (F-actin), rabbit skeletal muscle (rabbit) (UniProt P68135); remark: listed apart in the source
[4] = biological target: filamentous actin (F-actin), rabbit skeletal muscle (rabbit) (UniProt P68135); remark: listed apart in the source
[5] = biological target: GST-fused Eps8(648–821) wild type (mouse) (UniProt Q08509); test: SEC + other: glycerol gradient sedimentation; Superdex200 10/30 and 10%–40% glycerol gradients (100 mM Tris-HCl pH 8, 500 mM NaCl, 1 mM dithiothreitol, 1 mM EDTA) of purified GST-Eps8(648–821) proteins
[6] = biological target: AEDANS-labeled monomeric actin (rabbit) (UniProt P68135); test: other fluorescence titration; competition: 1.5 µM AEDANS-labeled actin, increasing Thymosin β4 with 0, 15 or 30 µM Eps8(648–821) or 0, 10 or 15 µM H1–H2; 0.1 M KCl and 1 mM MgCl2 (high salt); apparent constants

## C-terminal fragment of Ce-EPS-8A (aa 714–917) fused to GST, wild type (domain or fragment)
[1]
  Kcap of barbed end inhibition: elongation from spectrin-actin seeds with 2 µM G-actin (10% pyrenyl-labeled): 108 nM

## C-terminal fragment of Ce-EPS-8A (aa 714–917) fused to GST, wild type Δbund
[2]
  other: Kcap: 205 nM

## C-terminal fragment of Ce-EPS-8A (aa 714–917) fused to GST, wild type Δcap
[2]
  other: Kcap: 980 nM

## C-terminal fragment of Ce-EPS-8A (aa 714–917) fused to GST, wild type ΔcapΔbund
[2]
  other: Kcap: > 4000 nM

## Eps8(648–821)-V689D-L693D (Eps8-Δcap) (from UniProt Q08509 648-821) (domain or fragment)
[3]
  Kcap: barbed end elongation from spectrin-actin seeds: 700 nM

## GST-fused Eps8(648–821) wild type (from UniProt Q08509 648-821) (domain or fragment)
[4]
  Kcap: barbed end elongation, wild type of Figure 6C: 4 nM
  Kcap: barbed end elongation, wild type of Figure 6D: 16 nM
[5]
  stoichiometry N: 2

## GST-fused Eps8-ΔcapΔbund, double H1 and Villin-like motif mutant of Eps8(648–821) (from UniProt Q08509 648-821) (domain or fragment)
[4]
  Kcap: barbed end elongation: 4 µM

## Thymosin β4 (peptide)
[6]
  Kapp with 10 µM H1–H2: 6 µM
  Kapp with 15 µM Eps8(648–821): 9 µM
  Kapp with 15 µM H1–H2: 11 µM
  Kapp with 30 µM Eps8(648–821): 14 µM
  Kd: 3000 nM
